Publication PMC10267678 (2023)

B1: NJT4 (VHH)
VHH: QVQLVESGGGLVQPGGSLRLSCAASGFTFSSYTMRWYRQAPGKERELVAFIGVAGGSTKYADSVKGRFTISRDNTKNTVYLQMNTLKPEDTAVYYCYAPLTPYWGQGTQVTVSS
modifications: biotin (BLI, IHC) or Alexa-647 (two-photon imaging) added at the C-terminus by sortase-mediated tagging
B2: NJT3 (VHH)
VHH: QVQLVETGGGLAQAGGSLRLSCAASGRTLSGYAMGWFRQAPGKEREFVAAISWSGRNTYYDYTVQGRFTISKDNAKNTVNLQMNSLKPEDTAVYYCAVSRSLDEFGDGYEMDYWGDGTQVTVSS
modifications: biotin (BLI, IHC) or Alexa-647 (two-photon imaging) added at the C-terminus by sortase-mediated tagging
B3: NJT6 (VHH)
VHH: QVQLVETGGDLVQPGGSLRLSCAASGLTLDYYAIGWVRQAPGKEREGVSCITPQDGNTYYDDSVMGRFTILRDNAKNMVYLQMNNLKPEDTAVYFCAAAGALTLDPSEYEYWGQGTQVTVSS
modifications: biotin (BLI, IHC) or Alexa-647 (two-photon imaging) added at the C-terminus by sortase-mediated tagging

target: T1, full-length human TNC protein (human, UniProt P24821 23-2201); assay: BLI
T1 sequence (P24821 23-2201): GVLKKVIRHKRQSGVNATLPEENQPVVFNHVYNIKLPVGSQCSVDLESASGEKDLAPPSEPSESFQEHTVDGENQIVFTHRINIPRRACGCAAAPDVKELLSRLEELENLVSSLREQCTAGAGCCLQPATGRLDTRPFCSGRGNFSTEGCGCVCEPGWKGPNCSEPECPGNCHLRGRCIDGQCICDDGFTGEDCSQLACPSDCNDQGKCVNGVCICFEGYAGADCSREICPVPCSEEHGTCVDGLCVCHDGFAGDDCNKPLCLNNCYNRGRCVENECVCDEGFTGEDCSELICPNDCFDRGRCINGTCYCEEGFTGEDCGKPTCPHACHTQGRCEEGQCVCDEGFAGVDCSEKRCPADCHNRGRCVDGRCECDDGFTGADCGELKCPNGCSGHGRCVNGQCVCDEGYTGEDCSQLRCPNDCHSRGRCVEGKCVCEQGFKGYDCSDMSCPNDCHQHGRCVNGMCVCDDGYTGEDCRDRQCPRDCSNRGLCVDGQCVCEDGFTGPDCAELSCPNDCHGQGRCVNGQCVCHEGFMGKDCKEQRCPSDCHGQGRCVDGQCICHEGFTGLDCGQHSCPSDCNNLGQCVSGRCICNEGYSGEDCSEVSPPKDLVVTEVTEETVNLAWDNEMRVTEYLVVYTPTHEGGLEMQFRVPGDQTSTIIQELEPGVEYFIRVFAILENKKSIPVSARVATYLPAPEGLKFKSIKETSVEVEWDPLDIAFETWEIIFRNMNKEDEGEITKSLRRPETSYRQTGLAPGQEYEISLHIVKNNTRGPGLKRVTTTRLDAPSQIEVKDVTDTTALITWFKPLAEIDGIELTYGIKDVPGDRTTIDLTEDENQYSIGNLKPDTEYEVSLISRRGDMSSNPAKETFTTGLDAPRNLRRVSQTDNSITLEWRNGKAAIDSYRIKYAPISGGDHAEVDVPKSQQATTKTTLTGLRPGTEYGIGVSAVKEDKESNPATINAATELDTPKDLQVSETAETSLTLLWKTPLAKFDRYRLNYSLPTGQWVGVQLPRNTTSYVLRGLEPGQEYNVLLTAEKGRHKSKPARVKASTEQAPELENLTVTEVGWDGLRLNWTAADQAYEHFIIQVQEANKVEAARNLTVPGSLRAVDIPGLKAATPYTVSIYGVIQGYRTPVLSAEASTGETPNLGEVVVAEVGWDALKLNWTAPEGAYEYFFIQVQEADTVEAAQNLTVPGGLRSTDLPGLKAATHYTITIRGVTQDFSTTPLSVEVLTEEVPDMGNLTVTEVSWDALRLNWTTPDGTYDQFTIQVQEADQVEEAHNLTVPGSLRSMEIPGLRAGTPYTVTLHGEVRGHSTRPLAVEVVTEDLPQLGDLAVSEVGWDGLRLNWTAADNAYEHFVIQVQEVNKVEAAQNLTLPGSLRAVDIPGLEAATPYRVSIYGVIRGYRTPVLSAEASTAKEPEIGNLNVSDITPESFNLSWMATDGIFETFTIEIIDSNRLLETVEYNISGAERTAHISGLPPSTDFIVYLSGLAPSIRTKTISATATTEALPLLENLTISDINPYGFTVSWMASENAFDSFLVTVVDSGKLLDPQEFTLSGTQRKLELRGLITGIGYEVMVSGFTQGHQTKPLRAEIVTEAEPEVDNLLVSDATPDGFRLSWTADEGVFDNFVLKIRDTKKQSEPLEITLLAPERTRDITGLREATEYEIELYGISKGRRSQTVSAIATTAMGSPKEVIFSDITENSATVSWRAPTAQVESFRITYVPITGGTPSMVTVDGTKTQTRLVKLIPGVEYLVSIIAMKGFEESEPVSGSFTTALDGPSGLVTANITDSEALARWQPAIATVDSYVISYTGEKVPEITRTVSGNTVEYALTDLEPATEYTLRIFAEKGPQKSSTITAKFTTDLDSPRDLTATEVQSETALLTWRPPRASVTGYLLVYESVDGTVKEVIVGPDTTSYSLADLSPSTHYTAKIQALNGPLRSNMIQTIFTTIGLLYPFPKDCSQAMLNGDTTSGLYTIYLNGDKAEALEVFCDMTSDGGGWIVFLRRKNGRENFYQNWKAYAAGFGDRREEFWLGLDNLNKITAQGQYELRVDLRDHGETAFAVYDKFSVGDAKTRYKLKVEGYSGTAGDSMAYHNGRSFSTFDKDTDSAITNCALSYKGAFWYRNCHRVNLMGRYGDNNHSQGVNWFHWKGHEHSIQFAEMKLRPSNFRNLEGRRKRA

koff	Binder
< 1e-07 s⁻¹	B1
2.35e-07 s⁻¹	B2
< 1e-07 s⁻¹	B3

target: T1, full-length human TNC protein; assay: BLI; remark: another data set of the same source

Kd	Binder
< 1 pM	B1
1.47 pM	B2
< 1 pM	B3
